Results taken from the supplement of paper PMC12042874.
± gives the uncertainty stated by the source.

Test: amyloid nucleation score (Sup35N fusion, yeast selection) (log enrichment); library NNK1; higher = more nucleation; inactive = no reads after selection
Summary of the method: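 On medium lacking adenine and uracil, psi-negative yeast expressing peptides of 20 random codons fused to Sup35N were grown 7 days at 30°C after a 24-hour induction with 100 μM copper sulfate. Illumina sequencing of input and output plasmid inserts gave the reads, and sequences under 100 input reads were excluded. The nucleation score is the DiMSum log enrichment of output over input reads, centred on the mode score of non-aggregating sequences.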

In order of rising amyloid nucleation score:
1. SVACPGLARMGRRSGREYNE  -1.46 ± 0.59
2. RNRNCFSRYCRLIV  -1.45 ± 0.56
3. RRWRTFLMRCKRNDTSKIRR  -1.36 ± 1.2
4. SGTIYWLTDQSDFILLVMRD  -1.26 ± 0.47
5. VSESDKEGLEK  -1.17 ± 1.6
6. RPGGGAACAVRGRLPVCQLG  -1.13 ± 0.96
7. ILNFRERL  -1.06 ± 0.43
8. SINVL  -1.03 ± 0.55
9. YNYREWFSLIYFCIWDITWS  -1.01 ± 0.41
10. AKGYSYCKLI  -0.804 ± 0.3
11. NWLFRQCGSQMMVYVFEFFY  -0.776 ± 0.59
12. IFTRW  -0.741 ± 0.49
13. YELKSDNLFVRLF  -0.706 ± 0.46
14. SDFGI  -0.647 ± 0.64
15. RVNIV  -0.624 ± 0.48
16. GFARLLLRRVHRAIISHFRF  -0.617 ± 0.45
17. SYYQKCNAKNIF  -0.576 ± 0.4
18. CYCNEKIVTMRAIDIVRFTC  -0.556 ± 0.23
19. GAVCLGQIMCSRVPRDVNVK  -0.547 ± 0.49
20. LQRCAKLYSMSILTYAIIRF  -0.525 ± 0.28
21. LCAISHIE  -0.502 ± 0.28
22. FLNTNEKIKMQPIFPFFLLL  -0.495 ± 0.65
23. FNKVYMSSIVASKVVKMRLI  -0.476 ± 0.75
24. FKDGLCYCNSGVS  -0.452 ± 0.39
25. QSMSCRAFVVTSRLVHWGTQ  -0.438 ± 0.6
26. VVVFSTF  -0.376 ± 1.4
27. TCQFFRLSNRILQGDYSILM  -0.342 ± 0.48
28. EWRFCKS  -0.335 ± 0.33
29. CRTTHQALRWIHMDYYYSWV  -0.327 ± 0.31
30. ISVKSW  -0.325 ± 0.98
31. IFSIRFTLCGWPLLCHIMLL  -0.302 ± 0.31
32. AICWPVILSTDLTQTYLAWT  -0.247 ± 0.3
33. DMSFRYLSGSVNLCVVHLRR  -0.244 ± 1.1
34. YLVFMQEITLTKQLLWQSMR  -0.224 ± 0.39
35. LNVGV  -0.215 ± 1.7
36. LWWYFHRTL  -0.168 ± 0.65
37. LKVERMTRKPHGVELLSFRR  -0.163 ± 0.97
38. SYVSKSYLYKRGSELQAVLQ  -0.157 ± 0.65
39. WSRCSFFGHRYIKSSLLIWG  -0.139 ± 0.44
40. RILYMYWVFMVLFMTPRCLD  -0.099 ± 0.48
41. GIVCYKCSVDFLLSWLSVVF  -0.092 ± 0.31
42. VIPVFRGSSFA  -0.055 ± 0.66
43. TWIFVSLACKAL  -0.045 ± 0.4
44. IAWFYRGPIKLLRLYIGGIW  -0.042 ± 0.73
45. QFVHGRNETIRSFNCPGLAE  -0.007 ± 1.2
46. ESQSRGLMIVNGDFKD  0.018 ± 0.37
47. NDLFMESLL  0.025 ± 0.43
48. TSEQYESLCWVSSLRRIFQK  0.043 ± 0.48
49. AHSCDGPCRPHVTAVKALVL  0.089 ± 0.48
50. VCFTYNFSPQLVL  0.098 ± 0.38
51. YGINAVFLLIDLDERITDYL  0.105 ± 0.29
52. DLRKAGGWHRVIC  0.111 ± 0.56
53. YLPTVIPVFI  0.125 ± 0.98
54. TISLL  0.13 ± 0.43
55. YSCIYKWHECNNVNDNMK  0.149 ± 0.46
56. WCGVFESGNRPKSQGKGSKW  0.159 ± 0.55
57. RSMRDLDPTMVFGSVNSLGW  0.166 ± 0.63
58. LVSMVWLPM  0.167 ± 0.84
59. FDVLVIFGFDTNRDACSDAL  0.174 ± 0.38
60. DSTRTDSLYVSACHLLYLAE  0.178 ± 0.64
61. GVAMCEEWRLMISE  0.185 ± 0.74
62. MYKAEICLMSLENRPLMLPF  0.203 ± 0.44
63. SVVMHSWLLLIVTSGSFMYV  0.218 ± 0.53
64. SGDWTYFIIMRWDLPFIICR  0.265 ± 0.22
65. PMICFGWALIRYVTFQDLPV  0.276 ± 0.45
66. RGTDLSSYTSFVC  0.28 ± 0.41
67. VIIRRWHIVFCSRFMFPCNF  0.297 ± 0.64
68. PWYTSLEIKRSEETCKAMPF  0.302 ± 0.41
69. GEIEHHLRYVQCYFRRAVRL  0.319 ± 0.33
70. GEDVFVRSNELRN  0.338 ± 0.38
71. FSDQTFSDLGMIEFRGFLWS  0.343 ± 0.39
72. TYRLIRSFC  0.368 ± 0.4
73. FTLYYFLSC  0.406 ± 0.56
74. HCNSNVTWKV  0.414 ± 0.63
75. FGNSFRSQGVSFM  0.414 ± 0.32
76. IWVSGWNYVGRVVVEYQRLS  0.444 ± 1.4
77. QTEQMFGRVDIVYLPAIWSS  0.447 ± 0.45
78. HLWHSGPFVRMCCATFIFLA  0.49 ± 0.75
79. VSTGWKRLKFQLVIGCFS  0.502 ± 0.53
80. ISAVGKYESDTVGPSKND  0.507 ± 1
81. VLQQGTSLTKYV  0.509 ± 0.42
82. FFILSFNIRIYIFEVVTFLK  0.555 ± 0.52
83. RRRCSSVGRDLMAGSDKRYE  0.663 ± 0.24
84. NNHKLAFTVVTPIEDHFRMR  0.674 ± 0.46
85. THSRFSYGVVNR  0.683 ± 1
86. MLRTMG  0.746 ± 0.5
87. WVGFRQCLSASMCAPDPQTD  0.748 ± 0.8
88. GVLILCVSAKSRSAAVKQLS  0.755 ± 0.68
89. NVRYFLWGNAETIYL  0.769 ± 0.29
90. PLAVVVYDNHRRMGHHVRHG  0.807 ± 0.63
91. LVTDPWISTLSSFHLWGGFM  0.887 ± 0.7
92. DKRIARLNPRIGTSVSWDVS  0.89 ± 0.5
93. GYRCSWNDPMVNTVFFV  0.98 ± 0.56
94. LVGMCNHTYDS  0.998 ± 0.66
95. HTKDSGSVARCVVSNLSCNT  1.09 ± 0.48
96. SKYVYSF  1.2 ± 0.13
97. VLLVGDPDLPRKRRLRRIAE  1.23 ± 0.62
98. SYDISYDFWVNLVAGRLTSM  1.24 ± 0.6
99. RKFRGLVKLL  1.28 ± 0.85
100. NTDYSQAGVCGSRCLNSAL  1.54 ± 0.69
101. HCYRITYKRSNRDVL  1.76 ± 0.36
102. LLNMCNNESTLERNPF  1.93 ± 0.37
103. NQDVTPVMRVVLDSSPTLSS  2 ± 0.6
104. RVQFRKSTVSISYQNGFCTQ  2.73 ± 0.086
105. TIGASKFMICWTDSFHLQSQ  3 ± 0.12
106. IWMLELSGFMKMVQGGHQVG  3.06 ± 0.14
107. KCIYVFSYIYTFLNMCWRGH  3.5 ± 0.1
108. YMNLVLTDLAWSIWGG  3.62 ± 0.1
109. MINVYK  4.33 ± 0.073
110. KQTLLYHSSGSCCWELVSWW  4.39 ± 0.097
111. AIHMEHCCFVNVQRILRFVV  4.68 ± 0.092
112. RTVVQKKPVRCNMICNYWVF  4.82 ± 0.064
113. TFFRTTCTICCM  5.01 ± 0.053
114. NVHWRDVGGMLFRRNNIRRI  5.222 ± 0.052
115. YSWLVYNHNSDPGGSVCWSC  5.61 ± 0.065
116. QLSFYSFCPMATYRSSNSDL  5.92 ± 0.053
117. AQLYVNWFCVWSFKE  6.2 ± 0.08
118. CYVNLTFPVLVEACTASFTD  6.722 ± 0.055
119. NLWGSFTCYLFVIGNHWFGI  6.96 ± 0.084
120. RRGFVAHLFLVLTVVCNLNS  7.2 ± 0.071
121. YNVSQLVLLNVFTCK  7.459 ± 0.044

For IHVTGCYLEPSAHF, the amyloid nucleation score was “inactive”.
In the case of LNRVFEDHWVLTLAVLHTSR, the amyloid nucleation score is reported as “inactive”.
With MQSMQL the amyloid nucleation score was “inactive”.
For FLISWTIVMHVCTMTDACCR, the amyloid nucleation score was “inactive”.
In the case of IIEFML, the amyloid nucleation score is reported as “inactive”.
For DCTEH, the amyloid nucleation score was “inactive”.
For SYEFVVRSWLSLYLINFKSS, the amyloid nucleation score was “inactive”.
With ATRVPPFMEVLSPYH the amyloid nucleation score was “inactive”.
